Reference: the supplement of paper PMC11316812
± gives the standard deviation of the averaged measurements.

Assays:
MCF7 = assay: percentage of EdU-negative (G0-arrested) nuclei per well, 72 h; higher = more G0 arrest; conditions: reference: sequence is the full UniProt precursor, the tested protein was the secreted form or ectodomain
hTERT-HMEC = assay: as above; conditions: reference: sequence is the full UniProt precursor, the tested protein was the secreted form or ectodomain
[1] = protein concentration 0.0225 µM
[2] = protein concentration 0.00975 µM
[3] = protein concentration 0.0975 µM
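Also: secreted proteins added to cultured cells, EdU pulse at the end, nuclei found by Hoechst imaging, EdU status from nuclear versus surrounding ring intensity ratio, PBS as neutral control.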

Row | Sequence | percentage of EdU-negative (MCF7; [1]) [%] | percentage of EdU-negative (MCF7; protein concentration 0.225 µM) [%] | percentage of EdU-negative (hTERT-HMEC; [1]) [%] | percentage of EdU-negative (hTERT-HMEC; protein concentration 0.225 µM) [%] | other results
1 | MTVLAPAWSPTTYLLLLLLLSSGLSGTQDCSFQHSPISSDFAVKIRELSDYLLQDYPVTVASNLQDEELCGGLWRLVLAQRWMERLKTVAGSKMQGLLERVNTEIHFVTKCAFQPPPSCLRFVQTNISRLLQETSEQLVALKPWITRQNFSRCLELQCQPDSSTLPPPWSPRPLEATAPTAPQPPLLLLLLLPVGLLLLAAAWCLHWQRTRRRTPRPGEQVPPVPSPQDLLLVEH | 25 ± 0.85 | 25.7 ± 0.9 | 5 ± 0.57 | 5.47 ± 0.61 | –
2 | MVAALLGGGGEARGGTVPGAWLCLMALLQLLGSAPRGSGLAHGRRLICWQALLQCQGEPECSYAYNQYAEACAPVLAQHGGGDAPGAAAAAFPASAASFSSRWRCPSHCISALIQLNHTRRGPALEDCDCAQDENCKSTKRAIEPCLPRTSGGGAGGPGAGGVMGCTEARRRCDRDSRCNLALSRYLTYCGKVFNGLRCTDECRTVIEDMLAMPKAALLNDCVCDGLERPICESVKENMARLCFGAELGNGPGSSGSDGGLDDYYDEDYDDEQRTGGAGGEQPLDDDDGVPHPPRPGSGAAASGGRGDLPYGPGRRSSGGGGRLAPRGAWTPLASILLLLLGPLF | 24.6 ± 0.7 | 26.9 ± 0.34 | 4.96 ± 0.62 | 5.68 ± 0.97 | –
3 | MVAATVAAAWLLLWAAACAQQEQDFYDFKAVNIRGKLVSLEKYRGSVSLVVNVASECGFTDQHYRALQQLQRDLGPHHFNVLAFPCNQFGQQEPDSNKEIESFARRTYSVSFPMFSKIAVTGTGAHPAFKYLAQTSGKEPTWNFWKYLVAPDGKVVGAWDPTVSVEEVRPQITALVRKLILLKREDL [Q96SL4] | – | – | – | – | percentage of EdU-negative (MCF7; [2]): 25.2 ± 2%; percentage of EdU-negative (MCF7; [3]): 27.1 ± 1.4%; percentage of EdU-negative (hTERT-HMEC; [2]): 4.59 ± 0.052%; percentage of EdU-negative (hTERT-HMEC; [3]): 5.66 ± 0.28%
4 | MVAGSDAGRALGVLSVVCLLHCFGFISCFSQQIYGVVYGNVTFHVPSNVPLKEVLWKKQKDKVAELENSEFRAFSSFKNRVYLDTVSGSLTIYNLTSSDEDEYEMESPNITDTMKFFLYVLESLPSPTLTCALTNGSIEVQCMIPEHYNSHRGLIMYSWDCPMEQCKRNSTSIYFKMENDLPQKIQCTLSNPLFNTTSSIILTTCIPSSGHSRHRYALIPIPLAVITTCIVLYMNGILKCDRKPDRTNSN | 27.3 ± 0.7 | 26.7 ± 1.6 | 5.39 ± 0.14 | 5.59 ± 0.33 | –
5 | MVAPGLVLGLVLPLILWADRSAGIGFRFASYINNDMVLQKEPAGAVIWGFGTPGATVTVTLRQGQETIMKKVTSVKAHSDTWMVVLDPMKPGGPFEVMAQQTLEKINFTLRVHDVLFGDVWLCSGQSNMQMTVLQIFNATRELSNTAAYQSVRILSVSPIQAEQELEDLVAVDLQWSKPTSENLGHGYFKYMSAVCWLFGRHLYDTLQYPIGLIASSWGGTPIEAWSSGRSLKACGVPKQGSIPYDSVTGPSKHSVLWNAMIHPLCNMTLKGVVWYQGESNINYNTDLYNCTFPALIEDWRETFHRGSQGQTERFFPFGLVQLSSDLSKKSSDDGFPQIRWHQTADFGYVPNPKMPNTFMAVAMDLCDRDSPFGSIHPRDKQTVAYRLHLGARALAYGEKNLTFEGPLPEKIELLAHKGLLNLTYYQQIQVQKKDNKIFEISCCSDHRCKWLPASMNTVSTQSLTLAIDSCHGTVVALRYAWTTWPCEYKQCPLYHPSSALPAPPFIAFITDQGPGHQSNVAK [Q9HAT2] | 24.9 ± 0.68 | 24.8 ± 0.63 | 5.13 ± 1 | 7.82 ± 1.7 | –
6 | MVAPKSHTDDWAPGPFSSKPQRSQLQIFSSVLQTSLLFLLMGLRASGKDSAPTVVSGILGGSVTLPLNISVDTEIENVIWIGPKNALAFARPKENVTIMVKSYLGRLDITKWSYSLCISNLTLNDAGSYKAQINQRNFEVTTEEEFTLFVYEQLQEPQVTMKSVKVSENFSCNITLMCSVKGAEKSVLYSWTPREPHASESNGGSILTVSRTPCDPDLPYICTAQNPVSQRSSLPVHVGQFCTDPGASRGGTTGETVVGVLGEPVTLPLALPACRDTEKVVWLFNTSIISKEREEAATADPLIKSRDPYKNRVWVSSQDCSLKISQLKIEDAGPYHAYVCSEASSVTSMTHVTLLIYRRLRKPKITWSLRHSEDGICRISLTCSVEDGGNTVMYTWTPLQKEAVVSQGESHLNVSWRSSENHPNLTCTASNPVSRSSHQFLSENICSGPERNTKLWIGLFLMVCLLCVGIFSWCIWKRKGRCSVPAFCSSQAEAPADTPEPTAGHTLYSVLSQGYEKLDTPLRPARQQPTPTSDSSSDSNLTTEEDEDRPEVHKPISGRYEVFDQVTQEGAGHDPAPEGQADYDPVTPYVTEVESVVGENTMYAQVFNLQGKTPVSQKEESSATIYCSIRKPQVVPPPQQNDLEIPESPTYENFT [Q9HBG7] | – | – | – | – | percentage of EdU-negative (MCF7; protein concentration 0.02 µM): 25.2 ± 0.84%; percentage of EdU-negative (MCF7; protein concentration 0.2 µM): 29.3 ± 0.77%; percentage of EdU-negative (hTERT-HMEC; protein concentration 0.02 µM): 4.82 ± 0.27%; percentage of EdU-negative (hTERT-HMEC; protein concentration 0.2 µM): 7.12 ± 0.12%
